How the values were obtained:
[1] = molecular target: recombinant Lymnaea stagnalis acetylcholine-binding protein (AChBP) produced in LEXSY (Lymnaea stagnalis); assay: radioligand binding
[2] = molecular target: T1, recombinant L. stagnalis AChBP expressed in the insect Sf9 cells (Lymnaea stagnalis, UniProt P58154 20-229); assay: radioligand binding; conditions: both partners purified
T1 construct: also called insect cell-produced AChBP; standard specimen of insect cell-produced AChBP
T1 sequence (P58154 20-229): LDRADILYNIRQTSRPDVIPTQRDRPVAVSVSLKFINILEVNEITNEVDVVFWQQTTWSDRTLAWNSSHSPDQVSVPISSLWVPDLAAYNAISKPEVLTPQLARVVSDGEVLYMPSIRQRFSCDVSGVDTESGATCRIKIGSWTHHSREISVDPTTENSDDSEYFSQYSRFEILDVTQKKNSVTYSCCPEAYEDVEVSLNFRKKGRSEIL

recombinant Lymnaea stagnalis acetylcholine-binding protein (AChBP) produced in LEXSY (Lymnaea stagnalis), sequence (P58154 20-229 limits assumed): as the sequence (P58154 20-229) above

“radioiodinated α-bungarotoxin (from UniProt P60615 22-95) (ligand)” gave a Kd [1] of 0.05 nM.

B1: radioiodinated α-bungarotoxin (ligand)
chain: IVCHTTATSPISAVTCPPGENLCYRKMWCDAFCSSRGKVVELGCAATCPSKKPYEEVTCCSTDKCNPHPKQRPG
In the case of B1, the Kd [2] is reported as 0.062 ± 0.013 nM.

Reference: article PMC10934791 (Molecules, 2024)
